Key:
[1] = Stability assay (7 days at 4° C. or 37° C.; ELISA and gel filtration); type: physicochemical; conditions: after 7 days at 37° C.; gel filtration; FIG. 34B
Description: FIG. 34—A. Binding of purified antibodies incubated 7 days at 4° C. or 37° C. on human ChemR23 ELISA assay. B. SEC profile by gel filtration chromatography of purified antibodies incubated 7 days at 37° C. Each purified humanized anti-ChemR23 antibody (HALA, HDLD, HD-LDT52S, HEF-LDT52S, HEF-LEF) were incubated for 7 days at 4° C. or 37° C. After 7 days, the binding of purified antibodies was analyzed by ELISA assay and the aggregate formation was analyzed by gel filtration (Superdex 200 10/300GL, GeHealthcare).
Each purified humanized anti-ChemR23 antibody (HALA, HDLD, HD-LDT52S, HEF-LDT52S, HEF-LEF) were incubated for 7 days at 4° C. or 37° C. After 7 days, the binding of purified antibodies was analyzed by ELISA assay and the aggregate formation was analyzed by gel filtration (Superdex 200 10/300GL, GeHealthcare).

[2] = test system: PMN from healthy volunteers; assay: Percentage of dead PMN (mortality of neutrophils) on coated antibodies; type: cell-based, human; conditions: coated Ab at 10 μg/mL, 24 h; FIG. 26, FIG. 36
Description: […] Mortality of PMN was analyzed by incubating PMN with specific markers of the mortality and viability and then counted by picture analysis.
(§1) FIG. 36—Increase of dead PMN neutrophils in vitro with anti-ChemR23 antibodies coated. PMN from healthy volunteers were incubated in culture medium with coated HEF-LDT52S, HEF-LEF and HDLD antibody variants at 10 μg/mL for 24 h and stained either with a dead/viability kit (LIVE/DEAD (Invitrogen)). The percentages of positive cells were obtained by analyzing the pictures with Fiji software. Isotype control was added as control.
PMN from healthy volunteers were incubated in culture medium with coated Ab at 10 μg/mL for 24 h or 5 h and stained either with a dead/viability kit (LIVE/DEAD (Invitrogen)) or a specific marker of reactive oxygen species (ROS) respectively. The percentages of positive cells were obtained by analyzing the pictures with ImageJ software.
as §1, with “PMN” for “FIG. 36—Increase of dead PMN neutrophils in vitro with anti-ChemR23 antibodies coated. PMN”

[3] = biological target: T1, Biot-C7 peptide (human ChemR23 peptide, SEQ ID No. 60) (Homo sapiens, UniProt Q99788); assay: activity ELISA assay, binding of biotinylated C7 peptide; conditions: compared to wild-type 2G1; FIG. 23, FIG. 33
T1 construct: purchased synpeptide; host or cells: chemical synthesis
T1 sequence (Q99788 275-307 limits assumed): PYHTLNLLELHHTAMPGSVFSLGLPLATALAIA
Excerpt: FIG. 23. Binding recognition of C7 peptide by humanized anti-CMKLR1 derived from 2G1. Binding of C7biot in the supernatant of CHO cells transfected with different combinations of heavy and light chains (VHWT+VLWT: combination of SEQ ID No. 37 and SEQ ID No. 49; HCLC: combination of SEQ ID No. 42 and SEQ ID No.52; HDLC: combination of SEQ ID No. 43 and SEQ ID No.52; HCLD: combination of SEQ ID No. 42 and SEQ ID No.53; HDLD: combination of SEQ ID No. 43 and SEQ ID No.53).
FIG. 24. ED50 of anti-CMKLR1 derived from 2G1 antibody. 2G1 wt: HALA: combination of SEQ ID No. 41 and SEQ ID No. 50; combination of SEQ ID No. 37 and SEQ ID No. 49; HCLC: combination of SEQ ID No. 42 and SEQ ID No.52; HDLC: combination of SEQ ID No. 43 and SEQ ID No.52; HCLD: combination of SEQ ID No. 42 and SEQ ID No.53; HDLD: combination of SEQ ID No. 43 and SEQ ID No.53.
FIG. 33—Binding of purified antibodies on human ChemR23 peptide by ELISA assay (A), with ED50 concentration (ng/ml) (B). For activity ELISA assay, donkey anti-human IgG, Fc specific (Jackson Immunoresearch; USA; reference 709-005-098) was immobilized on plastic at 1.3 μg/ml in borate buffer (pH9) and purified antibody was added to measure binding in BSA1% buffer, compared to wild-type 2G1.
For activity ELISA assay, donkey anti-human IgG, Fc specific (Jackson Immunoresearch; USA; reference 709-005-098) was immobilized on plastic at 1.3 μg/ml in borate buffer (pH9) and purified antibody were added to measure binding in BSA1% buffer, compared to wild-type 2G1.
For activity ELISA assay, donkey anti-human IgG, Fc specific (Jackson Immunoresearch; USA; reference 709-005-098) was immobilized on plastic at 1.3 μg/ml in borate buffer (pH9) and purified antibody was added to measure binding in BSA1% buffer, compared to wild-type 2G1.

[4] = test system: CCR7 expression at the surface of pro-inflammatory macrophages M1; assay: CCR7 expression on M1 macrophages with coated antibodies; type: cell-based, human; conditions: antibody coated on plate, 48 h, flow cytometry; vs isotype control; FIG. 25, FIG. 35
Description: FIG. 25. Inhibition of CCR7 expression on M1 macrophages cells in vitro with anti-ChemR23 antibodies coated. 2G1 and all humanized 2G1 variants (HALA, HCLC, HCLD, HDLC and HDLD) were immobilized on plate. Isotype control were added as controls. Two isotypes which prevent FcRγ binding, i.e., 2G1-N297A (2G1 wt mutated in N297A to reduce FcγR binding), and 2G4 (wt with isotype IgG4mutated in S228P to stabilise hinge region) were also added. Pro-inflammatory macrophages M1 were added on coated plate for 48 h, and CCR7 expression at the surface of the macrophages was measured by flow cytometry.
FIG. 35—Inhibition of CCR7 expression on M1 macrophages cells in vitro with anti-ChemR23 antibody coated. The humanized 2G1 variant HEF-LD-T52S was immobilized on plate. Isotype control were added as controls. Pro-inflammatory macrophages M1 were added on coated plate, and CCR7 expression at the surface of the macrophages was measured by flow cytometry.
MATERIAL AND METHODS. […]
RESULTS. […] Pro-inflammatory macrophages M1 were added on coated plate for 48 h, and CCR7 expression at the surface of the macrophages was measured by flow cytometry.
The humanized 2G1 variant HEF-LD-T52S was immobilized on plate. […] Pro-inflammatory macrophages M1 were added on coated plate for 48 h, and CCR7 expression at the surface of the macrophages was measured by flow cytometry. […]

B1: HDLD: humanized 2G1 variant: combination of SEQ ID No. 43 and SEQ ID No. 53 (antibody, V domains shown)
VH: EVQLVESGGGLVQPGGSLRLSCAASGFTFSSYAMSWVRQAPGKGLELVATINRYGGSTYYAASVKGRFTISRDNSKNTLYLQMNSLRAEDTAVYYCPKLIYYGNEGDSWGQGTLVTVSS
VL: AIQLTQSPSSLSASVGDRVTITCRASQSVSFLHWYQQKPGKAPKRWIYDATKLTSGVPSRFSGSGSGTDFTLTISSLQPEDFATYYCQQWQSKPPLTFGGGTKVEIK
[1]
  percentage of aggregate: did not change
[2]
  mortality of PMN (percentage of dead PMN): accelerate the death of PMN
[3]
  binding activity to antigen-specific peptides (C7 peptide): even better than the germline antibody HALA and the wild type antibody 2G1

B2: HEF-LDT52S: humanized 2G1 variant optimized to reduce immunogenicity: HEF (SEQ ID NO: 91) with LD-T52S (SEQ ID No. 93) (antibody, V domains shown)
VH: EVQLVESGGGLVQPGGSLRLSCAASGFTFSSYAMSWVRQAPGKGLELVSTISGSGGSTYYAASVKGRFTISRDNSKNTLYLQMNSLRAEDTAVYYCPKLIYYGNEGDSWGQGTLVTVSS
VL: AIQLTQSPSSLSASVGDRVTITCRASQSVSFLHWYQQKPGKAPKRWIYDASKLTSGVPSRFSGSGSGTDFTLTISSLQPEDFATYYCQQWQSKPPLTFGGGTKVEIK
[1]
  percentage of aggregate: did not change
[4]
  expression of CCR7 at the surface of pro-inflammatory macrophages (M1): able to decrease expression of CCR7
[2]
  mortality of PMN (percentage of dead PMN): accelerate the death of PMN
[3]
  binding activity to antigen-specific peptides (C7 peptide): high binding activity
